Source: the supplement of paper PMC10567573

B1: RSPH3 (parent)
chain: FIPAKTGKDVATQILEGELFDFDL
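Further: lentivirally expressed fusions sorted by FACS into six bins by GFP to DsRed ratio, PSI derived from sequencing read proportions per bin multiplied by bin number.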

Variants of: B1
Assay: protein stability index of a GFP-peptide fusion (GPS, HEK-293T) (PSI 1-6); higher = more stable
Details: c terminus: a fixed tail appended
With FIPAKTGKDVATQILEGELFMFDL [D21M] the protein stability index was 2.98.
FIPAKTGKDVATQILEGELFLFDL [D21L] gave a protein stability index of 3.
FIPAKTGKDVATQILEGELFAFDL [D21A] showed a protein stability index of 2.33.
For FIPAKTGKDVATQILEGELFEFDL [D21E], the protein stability index was 1.49.
FIPAKTGKDVATQILEGELFHFDL [D21H] gave a protein stability index of 1.79.
For FIPAKTGKDVATQILEGELFFFDL [D21F], the protein stability index was 2.45.
FIPAKTGKDVATQILEGELFCFDL [D21C] gave a protein stability index of 2.71.
For FIPAKTGKDVATQILEGELFKFDL [D21K], the protein stability index was 1.96.
FIPAKTGKDVATQILEGELFIFDL [D21I] gave a protein stability index of 2.72.
FIPAKTGKDVATQILEGELFGFDL [D21G] gave a protein stability index of 2.24.
For FIPAKTGKDVATQILEGEPFDFDL [L19P], the protein stability index was 1.98.
With FIPAKTGKDVATQILEGESFDFDL [L19S] the protein stability index was 1.98.
For FIPAKTGKDVATQILEGEYFDFDL [L19Y], the protein stability index was 2.02.
Work on FIPAKTGKDVATQILEGEAFDFDL [L19A] yielded a protein stability index of 2.2.
Variant FIPAKTGKDVATQILEGEDFDFDL [L19D] has a protein stability index of 2.59.
For FIPAKTGKDVATQILEGEEFDFDL [L19E], the protein stability index was 2.2.
For FIPAKTGKDVATQILEGEHFDFDL [L19H], the protein stability index was 2.01.
Work on FIPAKTGKDVATQILEGETFDFDL [L19T] yielded a protein stability index of 2.28.
FIPAKTGKDVATQILEGEKFDFDL [L19K] gave a protein stability index of 2.21.
Work on FIPAKTGKDVATQILEGEVFDFDL [L19V] yielded a protein stability index of 1.74.
FIPAKTGKDVATQILEGERFDFDL [L19R] gave a protein stability index of 1.6.
Work on FIPAKTGKDVATQILEGEQFDFDL [L19Q] yielded a protein stability index of 1.66.
Variant FIPAKTGKDVATQILEGEIFDFDL [L19I] has a protein stability index of 2.05.
With FIPAKTGKDVATQILEGEWFDFDL [L19W] the protein stability index was 1.96.
Variant FIPAKTGKDVATQILEGEGFDFDL [L19G] has a protein stability index of 2.31.
Variant FIPAKTGKDVATQILEGEMFDFDL [L19M] has a protein stability index of 1.83.
Work on FIPAKTGKDVATQILEGENFDFDL [L19N] yielded a protein stability index of 1.93.
Work on FIPAKTGKDVATQILEGEFFDFDL [L19F] yielded a protein stability index of 1.7.
In the case of FIPAKTGKDVATQILEGECFDFDL [L19C], the protein stability index is reported as 1.83.
FIPAKTGKDVATQILEGTLFDFDL [E18T] gave a protein stability index of 2.62.
With FIPAKTGKDVATQILEGKLFDFDL [E18K] the protein stability index was 2.2.
FIPAKTGKDVATQILEGYLFDFDL [E18Y] gave a protein stability index of 1.59.
Work on FIPAKTGKDVATQILEGILFDFDL [E18I] yielded a protein stability index of 2.6.
For FIPAKTGKDVATQILEGGLFDFDL [E18G], the protein stability index was 1.71.
With FIPAKTGKDVATQILEGWLFDFDL [E18W] the protein stability index was 1.95.
FIPAKTGKDVATQILEGSLFDFDL [E18S] gave a protein stability index of 2.
FIPAKTGKDVATQILEGRLFDFDL [E18R] gave a protein stability index of 2.46.
Variant FIPAKTGKDVATQILEGFLFDFDL [E18F] has a protein stability index of 3.44.
FIPAKTGKDVATQILEGMLFDFDL [E18M] gave a protein stability index of 2.73.
Variant FIPAKTGKDVATQILEGNLFDFDL [E18N] has a protein stability index of 2.38.
Work on FIPAKTGKDVATQILEGDLFDFDL [E18D] yielded a protein stability index of 2.04.
FIPAKTGKDVATQILEGVLFDFDL [E18V] gave a protein stability index of 2.46.
With FIPAKTGKDVATQILEGLLFDFDL [E18L] the protein stability index was 2.42.
FIPAKTGKDVATQILEGCLFDFDL [E18C] gave a protein stability index of 2.17.
Variant FIPAKTGKDVATQILEGHLFDFDL [E18H] has a protein stability index of 2.
In the case of FIPAKTGKDVATQILEGPLFDFDL [E18P], the protein stability index is reported as 1.87.
FIPAKTGKDVATQILEGALFDFDL [E18A] gave a protein stability index of 1.74.
With FIPAKTGKDVATQILEGQLFDFDL [E18Q] the protein stability index was 2.06.
FIPAKTGKDVATQILQGELFDFDL [E16Q] showed a protein stability index of 1.7.
FIPAKTGKDVATQILPGELFDFDL [E16P] showed a protein stability index of 1.8.
FIPAKTGKDVATQILYGELFDFDL [E16Y] showed a protein stability index of 2.01.
For FIPAKTGKDVATQILRGELFDFDL [E16R], the protein stability index was 2.46.
FIPAKTGKDVATQILWGELFDFDL [E16W] gave a protein stability index of 2.07.
For FIPAKTGKDVATQILSGELFDFDL [E16S], the protein stability index was 2.76.
FIPAKTGKDVATQILVGELFDFDL [E16V] gave a protein stability index of 2.04.
Variant FIPAKTGKDVATQILTGELFDFDL [E16T] has a protein stability index of 1.63.
For FIPAKTGKDVATQILEGELVDFDL [F20V], the protein stability index was 2.71.
Variant FIPAKTGKDVATQILEGELIDFDL [F20I] has a protein stability index of 1.72.
For FIPAKTGKDVATQILEGELYDFDL [F20Y], the protein stability index was 2.01.
FIPAKTGKDVATQILEGELMDFDL [F20M] showed a protein stability index of 1.88.
With FIPAKTGKDVATQILEGELKDFDL [F20K] the protein stability index was 2.08.
In the case of FIPAKTGKDVATQILEGELLDFDL [F20L], the protein stability index is reported as 2.25.
For FIPAKTGKDVATQILEGELHDFDL [F20H], the protein stability index was 1.59.
With FIPAKTGKDVATQILEGELRDFDL [F20R] the protein stability index was 1.86.
In the case of FIPAKTGKDVATQILEGELTDFDL [F20T], the protein stability index is reported as 2.13.
Work on FIPAKTGKDVATQILEGELWDFDL [F20W] yielded a protein stability index of 2.26.
With FIPAKTGKDVATQILEGELQDFDL [F20Q] the protein stability index was 2.44.
Work on FIPAKTGKDVATQILEGELCDFDL [F20C] yielded a protein stability index of 2.16.
FIPAKTGKDVATQILEGELPDFDL [F20P] gave a protein stability index of 2.37.
Work on FIPAKTGKDVATQILEGELDDFDL [F20D] yielded a protein stability index of 2.92.
Work on FIPAKTGKDVATQILEGELNDFDL [F20N] yielded a protein stability index of 2.76.
Variant FIPAKTGKDVATQILEGELGDFDL [F20G] has a protein stability index of 1.84.
FIPAKTGKDVATQILEGELADFDL [F20A] showed a protein stability index of 2.47.
In the case of FIPAKTGKDVATQILEGELSDFDL [F20S], the protein stability index is reported as 2.52.
For FIPAKTGKDVATQILEGELEDFDL [F20E], the protein stability index was 2.6.
FIPAKTGKDVATQILEAELFDFDL [G17A] showed a protein stability index of 2.14.
With FIPAKTGKDVATQILEKELFDFDL [G17K] the protein stability index was 1.93.
With FIPAKTGKDVATQILERELFDFDL [G17R] the protein stability index was 2.15.
With FIPAKTGKDVATQILETELFDFDL [G17T] the protein stability index was 2.11.
FIPAKTGKDVATQILELELFDFDL [G17L] gave a protein stability index of 1.48.
Work on FIPAKTGKDVATQILENELFDFDL [G17N] yielded a protein stability index of 1.32.
Variant FIPAKTGKDVATQILEWELFDFDL [G17W] has a protein stability index of 1.95.
FIPAKTGKDVATQILEVELFDFDL [G17V] gave a protein stability index of 2.75.
FIPAKTGKDVATQILEYELFDFDL [G17Y] gave a protein stability index of 2.06.
For FIPAKTGKDVATQILEFELFDFDL [G17F], the protein stability index was 2.72.
Variant FIPAKTGKDVATQILEMELFDFDL [G17M] has a protein stability index of 1.71.
With FIPAKTGKDVATQILEQELFDFDL [G17Q] the protein stability index was 2.26.
In the case of FIPAKTGKDVATQILEDELFDFDL [G17D], the protein stability index is reported as 1.75.
With FIPAKTGKDVATQILEHELFDFDL [G17H] the protein stability index was 2.34.
For FIPAKTGKDVATQILEPELFDFDL [G17P], the protein stability index was 1.37.
FIPAKTGKDVATQILESELFDFDL [G17S] gave a protein stability index of 1.56.
FIPAKTGKDVATQILEEELFDFDL [G17E] showed a protein stability index of 3.
Work on FIPAKTGKDVATQILEIELFDFDL [G17I] yielded a protein stability index of 2.31.
FIPAKTGKDVATQILECELFDFDL [G17C] gave a protein stability index of 2.54.
